Measured values published in paper PMC8254419.

Target: Aβ_(1-42)
Assay: thioflavin T fluorescence aggregation kinetics

Aβ_(1-42) (peptide)
k+k2 (product of the rate constants of elongation and secondary nucleation): 1e+11 M^−3s^−2
